Consider one protein from publication PMC6009930, “Allosteric inhibition of carnosinase (CN1) by inducing a conformational shift” (Journal of Enzyme Inhibition and Medicinal Chemistry, 2017).

Substrate in this data set: NCCC(=O)N[C@@H](Cc1cnc[nH]1)C(=O)O
Description: OPA fluorescence assay of liberated histidine, Michaelis-Menten fit. The conditions noted are these: pH 7, control without thiol. The data set is classed as biochemical, Homo sapiens. From the text: OPA fluorescence assay of liberated histidine, Michaelis-Menten fit on recombinant CN1 (rCN1)

B1: recombinant CN1 (rCN1) (Homo sapiens) (protein)
chain: SSPSPPPALLEKVFQYIDLHQDEFVQTLKEWVAIESDSVQPVPRFRQELFRMMAVAADTLQRLGARVASVDMGPQQLPDGQSLPIPPVILAELGSDPTKGTVCFYGHLDVQPADRGDGWLTDPYVLTEVDGKLYGRGATDNKGPVLAWINAVSAFRALEQDLPVNIKFIIEGMEEAGSVALEELVEKEKDRFFSGVDYIVISDNLWISQRKPAITYGTRGNSYFMVEVKCRDQDFHSGTFGGILHEPMADLVALLGSLVDSSGHILVPGIYDEVVPLTEEEINTYKAIHLDLEEYRNSSRVEKFLFDTKEEILMHLWRYPSLSIHGIEGAFDEPGTKTVIPGRVIGKFSIRLVPHMNVSAVEKQVTRHLEDVFSKRNSSNKMVVSMTLGLHPWIANIDDTQYLAAKRAIRTVFGTEPDMIRDGSTIPIAKMFQEIVHKSVVLIPLGAVDDGEHSQNEKINRWNYIEGTKLFAAFFLEMAQLH
notes: FLAG-tagged, secreted by transfected CHO cells, purified from supernatant; homodimer in vitro; dinuclear Zn site
A word on the Km: it is the concentration of substrate that gives half-maximal velocity. Broadly, the Vmax is the top rate of the reaction or transport when substrate is in excess. With B1, the Km stood at 800 ± 100 µM and the Vmax turned out to be 0.07 µmol/min/mg.
